Experimental data: patent US10117916B2, “Peptides and combination of peptides for use in immunotherapy against CLL and other cancers” (immatics biotechnologies GmbH, priority 2015, dated 2018)

biological target: HLA-A*02:01 (Homo sapiens, UniProt P04439, D140Y/D185E/D98H/E176V/E277Q/G131W/G231S/I119V/I121R/I166T/I218V/L300P/L318F/N151K/N90K/P208A/P217A/Q86G/Q94H/R138H/R169H/T345S); experiment: MHC binding assay: UV-ligand exchange with β2m ELISA (peptide exchange yield); details: MHC class I binding score; binding to HLA-A*02:01 ranged by peptide exchange yield (UV-ligand exchange, β2m ELISA)
Outline: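 UV-cleavable peptide in HLA monomers exchanged for test peptide by UV irradiation; exchange yield measured by streptavidin-capture ELISA with HRP anti-β2m (TMB, 450 nm) on 100-fold diluted complexes. Quantified against refolded HLA-A*02:01/MLA-001 standards (15-500 ng/ml).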

| Substance | Peptide Exchange |
| --- | --- |
| 95 (ILGYMAHEHKV; listed as Homo sapiens) [compound 95] | ″++″ (≥20% = ++) |
| 218 (ALGEEWKGYVV; listed as Homo sapiens) [compound 218] | ″++″ (≥20% = ++) |
| 61 (FVYFIVREV; listed as Homo sapiens) [compound 61] | ″+++″ (≥50 = +++) |
| 341 (LLAELPASVHA; listed as Homo sapiens) [compound 341] | ″+++″ (≥50 = +++) |
| 292 (AAALIIHHV; listed as Homo sapiens) [compound 292] | ″+++″ (≥50 = +++) |
| 287 (FLWEEKFNSL; listed as Homo sapiens) [compound 287] | ″++++″ (≥75% = ++++) |
| 236 (GLLESGRHYL; listed as Homo sapiens) [compound 236] | ″+++″ (≥50 = +++) |
| 328 (VLLPQETAEIHL; listed as Homo sapiens) [compound 328] | ″++++″ (≥75% = ++++) |
| 189 (VMLEMTPEL; listed as Homo sapiens) [compound 189] | ″+++″ (≥50 = +++) |
| 36 (FILTHVDQL; listed as Homo sapiens) [compound 36] | ″++++″ (≥75% = ++++) |
| 40 (FLDEDDMSL; listed as Homo sapiens) [compound 40] | ″++″ (≥20% = ++) |
| 250 (LLVQEPDGLMV; listed as Homo sapiens) [compound 250] | ″+++″ (≥50 = +++) |
| 310 (LLSTLHLLV; listed as Homo sapiens) [compound 310] | ″+++″ (≥50 = +++) |
| 142 (QLDEPAPQV; listed as Homo sapiens) [compound 142] | ″++″ (≥20% = ++) |
| 9 (ALCDTLITV; listed as Homo sapiens) [compound 9] | ″+++″ (≥50 = +++) |
| 347 (YLGPVSPSL; listed as Homo sapiens) [compound 347] | ″+++″ (≥50 = +++) |
| 153 (SLLAELHVL; listed as Homo sapiens) [compound 153] | ″+++″ (≥50 = +++) |
| 360 (HLIDTNKIQL; listed as Homo sapiens) [compound 360] | ″+++″ (≥50 = +++) |
| 34 (YLPYIFPNI; listed as Homo sapiens) [compound 34] | ″+++″ (≥50 = +++) |
| 99 (ILIFHSVAL; listed as Homo sapiens) [compound 99] | ″+++″ (≥50 = +++) |
| 334 (YLLEEKIASL; listed as Homo sapiens) [compound 334] | ″+++″ (≥50 = +++) |
| 3 (VIAELPPKV; listed as Homo sapiens) [compound 3] | ″++″ (≥20% = ++) |
| 311 (LLVDVEPKV; listed as Homo sapiens) [compound 311] | ″+++″ (≥50 = +++) |
| 12 (ALGEDEITL; listed as Homo sapiens) [compound 12] | ″+++″ (≥50 = +++) |

| Substance | Peptide Exchange |
| --- | --- |
| 118 (RLLILENILL; listed as Homo sapiens) [compound 118] | ″+++″ (≥50 = +++) |
| 44 (FLLSINDFL; listed as Homo sapiens) [compound 44] | ″+++″ (≥50 = +++) |
| 365 (LISPLLLPV; listed as Homo sapiens) [compound 365] | ″+++″ (≥50 = +++) |
| 53 (FLWQHVELVL; listed as Homo sapiens) [compound 53] | ″+++″ (≥50 = +++) |
| 378 (YILGKFFAL; listed as Homo sapiens) [compound 378] | ″+++″ (≥50 = +++) |
| 211 (LIDVKPLGV; listed as Homo sapiens) [compound 211] | ″+++″ (≥50 = +++) |
| 217 (ALDEPPYLTV; listed as Homo sapiens) [compound 217] | ″+++″ (≥50 = +++) |
| 259 (RLLDEQFAVL; listed as Homo sapiens) [compound 259] | ″+++″ (≥50 = +++) |
| 152 (SLIRILQTI; listed as Homo sapiens) [compound 152] | ″+++″ (≥50 = +++) |
| 30 (ELLEGSEIYL; listed as Homo sapiens) [compound 30] | ″+++″ (≥50 = +++) |
| 115 (LLFDKLYLL; listed as Homo sapiens) [compound 115] | ″+++″ (≥50 = +++) |
| 312 (LLYNSTDPTL; listed as Homo sapiens) [compound 312] | ″+++″ (≥50 = +++) |
| 119 (VLPAEFFEV; listed as Homo sapiens) [compound 119] | ″+++″ (≥50 = +++) |
| 243 (ILPTLEKELFL; listed as Homo sapiens) [compound 243] | ″+++″ (≥50 = +++) |
| 47 (FLSDQPEPYL; listed as Homo sapiens) [compound 47] | ″++″ (≥20% = ++) |
| 278 (YLDDLLPKL; listed as Homo sapiens) [compound 278] | ″+++″ (≥50 = +++) |
| 70 (FVPDTPVGV; listed as Homo sapiens) [compound 70] | ″+++″ (≥50 = +++) |
| 268 (TLLQVFHLL; listed as Homo sapiens) [compound 268] | ″+++″ (≥50 = +++) |
| 91 (ILDLNTYNV; listed as Homo sapiens) [compound 91] | ″+++″ (≥50 = +++) |
| 174 (VLAELPIIVV; listed as Homo sapiens) [compound 174] | ″+++″ (≥50 = +++) |
| 87 (HQIEAVDGEEL; listed as Homo sapiens) [compound 87] | ″++″ (≥20% = ++) |
| 130 (LLVLIPVYL; listed as Homo sapiens) [compound 130] | ″+″ (≥10% = +) |
| 264 (TILDYINVV; listed as Homo sapiens) [compound 264] | ″+++″ (≥50 = +++) |
| 60 (FVLDHEDGLNL; listed as Homo sapiens) [compound 60] | ″+++″ (≥50 = +++) |

| Substance | Peptide Exchange |
| --- | --- |
| 83 (GQGEVLVYV; listed as Homo sapiens) [compound 83] | ″+++″ (≥50 = +++) |
| 289 (ILEEQPMDMLL; listed as Homo sapiens) [compound 289] | ″+++″ (≥50 = +++) |
| 345 (YLIEPDVELQRI; listed as Homo sapiens) [compound 345] | ″+++″ (≥50 = +++) |
| 10 (FVYGESVEL; listed as Homo sapiens) [compound 10] | ″+++″ (≥50 = +++) |
| 150 (SLFDQPLSII; listed as Homo sapiens) [compound 150] | ″+++″ (≥50 = +++) |
| 304 (LAIVPVNTL; listed as Homo sapiens) [compound 304] | ″+″ (≥10% = +) |
| 35 (FILPSSLYL; listed as Homo sapiens) [compound 35] | ″+++″ (≥50 = +++) |
| 314 (LMKDCEAEV; listed as Homo sapiens) [compound 314] | ″+++″ (≥50 = +++) |
| 172 (TLYDMLASI; listed as Homo sapiens) [compound 172] | ″+++″ (≥50 = +++) |
| 367 (NLWSLVAKV; listed as Homo sapiens) [compound 367] | ″+++″ (≥50 = +++) |
| 138 (NLLDIDAPVTV; listed as Homo sapiens) [compound 138] | ″+++″ (≥50 = +++) |
| 51 (FLVEAPHDWDL; listed as Homo sapiens) [compound 51] | ″++++″ (≥75% = ++++) |
| 203 (ALLSSQLAL; listed as Homo sapiens) [compound 203] | ″+++″ (≥50 = +++) |
| 231 (FLYIRQLAI; listed as Homo sapiens) [compound 231] | ″+++″ (≥50 = +++) |
| 175 (FTVPRVVAV; listed as Homo sapiens) [compound 175] | ″+++″ (≥50 = +++) |
| 124 (LLLEETEKQAV; listed as Homo sapiens) [compound 124] | ″+++″ (≥50 = +++) |
| 161 (SMDDGMINV; listed as Homo sapiens) [compound 161] | ″+++″ (≥50 = +++) |
| 277 (VMILKLPFL; listed as Homo sapiens) [compound 277] | ″++″ (≥20% = ++) |
| 316 (MLLEHGITL; listed as Homo sapiens) [compound 316] | ″+++″ (≥50 = +++) |
| 279 (YMAPEVVEA; listed as Homo sapiens) [compound 279] | ″+++″ (≥50 = +++) |
| 126 (LLPEGGITAI; listed as Homo sapiens) [compound 126] | ″+++″ (≥50 = +++) |
| 97 (LLFATQITL; listed as Homo sapiens) [compound 97] | ″++″ (≥20% = ++) |
| 163 (SQLDISEPYKV; listed as Homo sapiens) [compound 163] | ″+++″ (≥50 = +++) |
